Experimental data: patent US20100035945A1, “SMALL MOLECULE INHIBITORS OF BACTERIAL DAM DNA METHYLTRANSFERASES” (priority 2004, published 2010)
Entries after “also recorded” stand apart in the source; their conditions may differ. Like-named read-outs stand apart in the source and are kept apart here.

Legend:
[1] = molecular target: EcoDam R124A R124A (Escherichia coli) (UniProt P0AEE8); assay: SPR
[2] = molecular target: EcoDam K9A K9A (Escherichia coli) (UniProt P0AEE8); assay: SPR; conditions: data not shown
[3] = molecular target: T1, EcoDam DNA adenine methyltransferase (Escherichia coli, UniProt P0AEE8 SEQ:1-274); conditions: 2-aminopurine replacing orphan Thy; AdoHcy, Thy flipping
[4] = tested on: EPEC; format: cell-based, enteropathogenic E. coli (EPEC); conditions: 20 μM compound, 3T3 cells infected with EPEC for 6 hrs, FITC-phalloidin/DAPI
Description: Cell and animal models for pathogenic E. coli infection: Enteropathogenic E. coli (EPEC), which is closely related to enterohemorrhagic E. coli O157:H7 (EHEC), and the closely related mouse pathogen Citrobacter rodentium all cause attaching and effacing (A/E) lesions, characterized by flattening of intestinal microvilli, adherence of the bacteria to epithelial cells, and reorganization of the host actin cytoskeleton, which result in the formation of an actin-filled membrane protrusion or “pedestal” beneath each bacterium (Goosney et al., 2000; Knutton et al., 1989). Pedestal formation is readily detected on cultured fibroblasts (see FIG. 30) exposed to EPEC, and then stained with antibodies that recognized outer membrane proteins in the bacterium (green in FIG. 30) or DAPI, which recognizes bacterial and cellular DNA (blue in FIG. 30), together with phalloidin to recognize actin (red in […]). Pedestals are seen as intense actin staining directly opposed to the bacterium.
(§1) To determine whether formation of actin pedestals by EPEC could be used to screen for drugs which inhibit virulence, we tested each of the 82 compounds. 3T3 cells were plated in 96 well optical dishes. In this “proof of principle” experiment, each of the 82 compounds was added to a well at 20 μM, and cells were infected with EPEC for 6 hrs. The optical density (OD600) of the supernatant was assessed to estimate effects on bacterial growth, and the cells were fixed and stained with DAPI to recognize bacteria (and cell nuclei), and FITC-phalloidin to recognize filamentous actin. Inhibition of actin pedestals is readily identifiable as the loss of intense actin staining (Kalman et al., 1999; Swimm et al., 2004a). The plate was then scanned visually on an inverted Zeiss 200M fluorescence microscope with a 20× objective. All the wells on the dish were examined with 5 minutes (a high throughput format). At low power, actin pedestals are seen as intense fluorescence apposed to groups of bacteria (see FIG. 31B, arrow).

[5] = molecular target: Dam (Escherichia coli, UniProt P0AEE8); conditions: compound concentration 200 μM; preliminary results, microplate assay
[6] = tested on: 3T3 cells; conditions: 20 μM compound
Protocol: as §1

[7] = tested on: EPEC; assay: bacterial growth by OD600 of supernatant / growth curves; format: cell-based, enteropathogenic E. coli (EPEC); conditions: 20 μM compound, listed as G6
Protocol: as §1

[8] = molecular target: T2, T4Dam DNA adenine methyltransferase (Enterobacteria phage T4, UniProt P04392 SEQ:1-259); assay: structure; AdoHcy; PDB 1YF3; nonspecific and 1/4-site; conditions: one-base 5' overhangs
[9] = molecular target: T1, EcoDam DNA adenine methyltransferase; assay: structure; AdoHcy cognate complex 1.89 A; also sinefungin non-canonical joint complex 1.99 A; conditions: tags: His tag
Protocol: His Tag-EcoDam is expressed in HMS174(DE3) cells and purified using Ni²⁺-affinity, UnoS, and S75 Sepharose sizing columns. A 0.5-liter induced culture yields approximately 7 mg purified His Tag-EcoDam. In the last purification step and during concentration, cofactor analog AdoHcy or sinefungin is added is added to the protein at approximately 2:1 molar ratio. Concentrated binary complexes are mixed with oligonucleotide duplex (synthesized by New England Biolabs, Inc) at a protein to DNA ratio of about 2:1 and allowed to stand on ice for at least two hours before crystallization. Final protein concentration for crystallization is about 15 mg/mL. In hanging drop crystallization trials with AdoHcy, the ternary complex crystals appeared under low salt conditions of 100 mM KCl, 10 mM MgSO₄, 5-15% PEG400, and 100 mM buffer (MES or HEPES) pH 6.6-7.4 (the cognate crystal form in Table 4).
Structural determination of the cognate ternary complex proceeded by molecular replacement with the program REPLACE (Tong and Rossmann, 1997) using protein coordinates of a DpnM monomer structure (PDB 2DPM) (Tran et al., 1998). […] Structure of the non-cognate ternary complex was determined using a protein monomer from the refined cognate complex structure as a search model.

[10] = molecular target: T2, T4Dam DNA adenine methyltransferase; assay: structure; sinefungin; PDB 1YFL; full site with flipped Ade
[11] = molecular target: T2, T4Dam DNA adenine methyltransferase; assay: structure; AdoHcy; nonspecific mode, not at GATC; 3.1 A

In the case of SPR GATC oligonucleotide duplex, the binding signal (fold reduction vs wild type) [1] is reported as 10 and the binding signal (% of wild type binding) [2] is reported as 70.

In the case of GATC with 2AP at orphan Thy, the binding signal (fold fluorescence increase) [3] is reported as 6.

`O=C1Oc2ccccc2C(=O)/C1=C/Nc1nc(-c2ccc(O)c(O)c2)cs1` [Compound 78] was tested, and the actin pedestal formation [4] was “inhibit actin pedestal formation”, the actin pedestal formation ([4]; listed as G6) was “appeared to inhibit actin pedestals; also recorded: No actin pedestals are observed” and the actin pedestal formation ([4]; listed as NCI 659390) was “inhibit actin pedestal formation”. For the same molecule, the Factor of inhibition [5] was 5, the “gross cytopathological effects on 3T3 cells” value [6] was “no gross cytopathological effects” and the “effect on bacterial growth (OD600)” value [7] was “did not affect bacterial growth; also recorded: no effect on bacterial growth”.

B1: 13-mer duplex II (dsDNA)
DNA 1: TGTCAGATCATGG
DNA 2: ACCATGATCTGAC
B1: binds [8].

B2: EcoDam 12-mer (dsDNA)
DNA 1: TCTAGATCTAGA
DNA 2: TCTAGATCTAGA
B2: binds [9].

B3: 16-mer duplex (dsDNA)
DNA 1: TCACAGGATCCTGTGA
DNA 2: TCACAGGATCCTGTGA
B3: binds [10].

B4: 12-mer duplex I (dsDNA)
DNA 1: ACAGGATCCTGT
DNA 2: ACAGGATCCTGT
B4: binds [11].
